Results taken from article PMC6638009.

Experiments:
[1] = target: His-tagged OsTFIIAγ1, labelled with NT-647 (rice (Oryza sativa)); test: MST; […]; 50 mM Tris-HCl pH 7.8, 150 mM NaCl, 10 mM MgCl2, 0.05% Tween-20; 25°C; […]
[2] = target: His-tagged Xa5 (OsTFIIAγ5), labelled with NT-647 (rice (Oryza sativa)) (UniProt A2XZI2); test: as above

| Substance | Kd [1] [nM] | Kd [2] [nM] |
| --- | --- | --- |
| His-tagged AvrXa7 (natural protein) | < 1000 | < 1000 |
| His-tagged AvrXa27 (from UniProt A0A0K0GNW2 1-1136) (natural protein) | < 1000 | – |
| His-tagged PthXo1 (from UniProt B2SU53 1-1373) (natural protein) | < 1000 | – |
